Data from patent US20170051047A1.

Tests used:
[1] = target: Clostridium difficile toxin A (whole toxin A) (Clostridium difficile) (UniProt P16154)
[2] = target: Clostridium difficile toxin A (whole toxin A) (Clostridium difficile) (UniProt P16154); test: cell-based or functional assay

## CDA1 (Merck anti-toxin A mAb used as a control) (antibody)
[1]
  Kd: 0.624 nM
  koff: 0.000291 s⁻¹
  kon: 480000 M⁻¹ s⁻¹
[2]
  IC50, in vitro toxin A neutralization on Vero cells: 0.347 µg/mL
